The results in this text go back to article PMC8124269, “Antiviral Properties of the NSAID Drug Naproxen Targeting the Nucleoprotein of SARS-CoV-2 Coronavirus”.

The data set has as its target SARS-CoV-2 N NTD (batch 2, monomer) (SARS-CoV-2, UniProt P0DTC9 50-173). Put plainly: DLS; Anisotropy: 10 mM Tris pH 8.0, 50 mM NaCl, 2 mM beta-mercaptoethanol, thermostated (temperature not stated); DLS: 20 mM Tris pH 7.9, 100 mM NaCl, 20 C. Particulars: protein: recombinant; tags: N-terminal His6 (pET-28a); single strand.

Regarding ATATATATCTATGTCCATATATATATAAAACACAGCGTGTGTGTGTAA (ssDNA) [48-mer ssDNA], the binding result is “binds”.
